Source: paper PMC2132842 (The Journal of Cell Biology, 1998)

T1: GAL4/CAS (human, UniProt P55060 1-971)
T1 sequence (looked up): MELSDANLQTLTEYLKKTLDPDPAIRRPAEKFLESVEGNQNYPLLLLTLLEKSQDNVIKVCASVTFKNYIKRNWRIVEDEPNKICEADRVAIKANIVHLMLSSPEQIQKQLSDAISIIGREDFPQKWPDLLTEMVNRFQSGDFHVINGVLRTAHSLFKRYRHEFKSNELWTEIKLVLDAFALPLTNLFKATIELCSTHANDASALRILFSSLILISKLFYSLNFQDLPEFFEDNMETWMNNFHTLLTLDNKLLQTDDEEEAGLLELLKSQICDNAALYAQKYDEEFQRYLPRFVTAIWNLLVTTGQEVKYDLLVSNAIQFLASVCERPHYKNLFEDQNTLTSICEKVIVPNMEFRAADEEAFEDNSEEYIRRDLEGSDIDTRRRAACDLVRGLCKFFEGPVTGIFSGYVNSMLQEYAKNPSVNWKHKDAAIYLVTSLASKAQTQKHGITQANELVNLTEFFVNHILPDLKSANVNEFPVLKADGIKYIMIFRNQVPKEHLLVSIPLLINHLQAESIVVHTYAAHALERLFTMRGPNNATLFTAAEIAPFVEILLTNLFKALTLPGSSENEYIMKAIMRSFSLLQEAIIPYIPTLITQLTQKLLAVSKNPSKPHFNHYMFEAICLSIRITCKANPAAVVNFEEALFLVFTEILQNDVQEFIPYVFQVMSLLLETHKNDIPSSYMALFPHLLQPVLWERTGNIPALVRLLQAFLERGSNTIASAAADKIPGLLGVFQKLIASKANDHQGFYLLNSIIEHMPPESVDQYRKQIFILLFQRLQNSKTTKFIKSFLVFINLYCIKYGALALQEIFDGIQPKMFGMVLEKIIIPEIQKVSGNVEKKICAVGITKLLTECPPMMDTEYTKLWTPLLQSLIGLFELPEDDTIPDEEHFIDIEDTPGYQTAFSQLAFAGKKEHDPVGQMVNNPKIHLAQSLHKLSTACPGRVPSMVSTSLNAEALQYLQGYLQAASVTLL

B1: VP16/Imp α1 (natural protein)
chain: not shown
B2: VP16/Imp α4 (natural protein, human, UniProt O00505 1-521, looked up)
chain: MAENPSLENHRIKSFKNKGRDVETMRRHRNEVTVELRKNKRDEHLLKKRNVPQEESLEDSDVDADFKAQNVTLEAILQNATSDNPVVQLSAVQAARKLLSSDRNPPIDDLIKSGILPILVKCLERDDNPSLQFEAAWALTNIASGTSAQTQAVVQSNAVPLFLRLLRSPHQNVCEQAVWALGNIIGDGPQCRDYVISLGVVKPLLSFISPSIPITFLRNVTWVIVNLCRNKDPPPPMETVQEILPALCVLIYHTDINILVDTVWALSYLTDGGNEQIQMVIDSGVVPFLVPLLSHQEVKVQTAALRAVGNIVTGTDEQTQVVLNCDVLSHFPNLLSHPKEKINKEAVWFLSNITAGNQQQVQAVIDAGLIPMIIHQLAKGDFGTQKEAAWAISNLTISGRKDQVEYLVQQNVIPPFCNLLSVKDSQVVQVVLDGLKNILIMAGDEASTIAEIIEECGGLEKIEVLQQHENEDIYKLAFEIIDQYFSGDDIDEDPCLIPEATQGGTYNFDPTANLQTKEFNF

Assays:
[1] = molecular target: T1, GAL4/CAS; experiment: two-hybrid
[2] = molecular target: GAL4/Imp βΔ1/261 (human, UniProt Q14974 262-876); experiment: two-hybrid
Chain of GAL4/Imp βΔ1/261 (Q14974 262-876, stated change not applied): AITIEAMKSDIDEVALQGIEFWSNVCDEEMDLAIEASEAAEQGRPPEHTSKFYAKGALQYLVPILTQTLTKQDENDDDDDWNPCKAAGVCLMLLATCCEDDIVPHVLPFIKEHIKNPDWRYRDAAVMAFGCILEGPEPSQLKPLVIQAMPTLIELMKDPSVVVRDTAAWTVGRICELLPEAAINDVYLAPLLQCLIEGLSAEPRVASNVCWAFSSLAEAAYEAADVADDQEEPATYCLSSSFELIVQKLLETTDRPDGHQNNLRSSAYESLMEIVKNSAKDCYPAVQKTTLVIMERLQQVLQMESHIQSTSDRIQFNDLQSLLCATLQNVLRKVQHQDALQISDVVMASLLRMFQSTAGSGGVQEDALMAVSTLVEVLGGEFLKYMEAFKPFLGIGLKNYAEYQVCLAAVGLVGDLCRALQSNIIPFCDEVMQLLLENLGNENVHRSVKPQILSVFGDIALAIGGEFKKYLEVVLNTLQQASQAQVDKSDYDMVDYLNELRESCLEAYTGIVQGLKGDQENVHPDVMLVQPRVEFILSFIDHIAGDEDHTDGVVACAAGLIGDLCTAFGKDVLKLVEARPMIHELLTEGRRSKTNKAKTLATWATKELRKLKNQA

Binder	β-gal activity [1]	β-gal activity [2]
B1	101 mOD/ml	2350 mOD/ml
B2	174 mOD/ml	1850 mOD/ml
